According to patent US20210380994A1, “LACTOCOCCUS LACTIS EXPRESSION SYSTEM FOR DELIVERING PROTEINS EFFICACIOUS FOR THE TREATMENT OF EPITHELIAL BARRIER FUNCTION DISORDERS” (Second Genome, Inc., priority 2018, published 2021):

Tested on: C57BL/6 mice treated with DSS
Experiment: concurrent (prophylactic) DSS model of inflammatory bowel disease (Examples 4, 13A)
Type: in vivo
Details: for 4KDa-FITC signal in serum: Example 13, first model, SG-11 (SEQ ID NO:9) 50 nmoles/kg i.p. b.i.d. (FIG. 18A, p=0.04), SG-11V5 (printed FIG. 18B, p=0.21)
Protocol: On day six, mice were fasted for four hours and then orally gavaged with 600 mg/kg 4KDa dextran labeled with fluorescein isothiocyanate (FITC) [4KDa-FITC]. One hour after the 4KDa-FITC gavage, mice were euthanized, blood was collected, and FITC signal was measured in serum. […] The magnitude of 4KDa-FITC dextran translocation observed for SG-11 was similar to the positive control of Gly2-GLP2. Results are shown in FIG. 3, and are presented as mean±SEM. The graph in FIG. 3 represents data pooled from 3 independent experiments, each using 10 mice (n=30).
SG-11 was also assessed for its effects on the levels of lipopolysaccharide (LPS) binding protein (LBP) in the blood of the DSS animal with and without SG-11 administration. LBP, which has been linked to clinical disease activity in subjects with inflammatory bowel disease, was also measured by […] in the serum of mice tested in the DSS model described in this Example. […] Results are shown in FIG. 4, and are presented as mean±SEM. The graph in FIG. 4 represents data pooled from 3 independent experiments (n=30; each experiment using 10 mice).
Body weight was measured daily from mice included in the DSS model described in this Example. Percent change from starting weight on day 0 was determined for each mouse. […] Weight loss in mice treated with SG-11 at day 6 was similar to weight loss observed with Gly2-GLP2. The graph in FIG. 5 represents data pooled from two independent experiments (n=20; each experiment using 10 mice).
Gross pathology observations were made in mice included in the concurrent DSS model performed in this Example. […] No differences in clinical scores were observed between mice given DSS and treated with either Gly2-GLP2 or SG-11. The scoring system used was: (0)=no gross pathology, (1)=streaks of blood visible in feces, (2)=completely bloody fecal pellets, (3) bloody fecal material visible in cecum, (4) bloody fecal material in cecum and loose stool, (5)=rectal bleeding. The graph in FIG. 6 represents data pooled from 3 independent experiments (n=30; each experiment using 10 mice).
In addition, histopathology analysis was performed on proximal and distal colon tissues from the DSS model animals. […] LMA Loss of mucosal architecture, Edema=Edema, INF=Inflammation. TMI=Transmural inflammation, MH=Mucosal hyperplasia, DYS=Dysplasia. Graphs represent data pooled from two independent experiments, and are plotted as mean±SEM. Statistical analysis was performed by a one-way ANOVA compared to DSS+vehicle followed by a Fisher's LSD test for multiple comparisons.
Colon length was measured in mice included in the DSS model described above. […] The graphs in FIGS. 8A and 8B represent data pooled from 3 independent experiments (n=30). Data are graphed as mean SEM and are pooled from three independent experiments (n=30; each experiment using 10 mice). Statistical analysis was performed by a one-way ANOVA followed by a Fisher's LSD multiple comparisons test.
Briefly, in the first DSS mouse model (Example 13A), mice were treated on day zero with test compound intraperitoneally (i.p.) and 6 hours later DSS treatment was initiated. Doses administered included 50 nmoles/kg for SG-11 (SEQ ID NO:9) ([…]), and Gly2-GLP2 (0.2 mg/kg), and a dose response for SG-11V5 (SEQ ID NO:19) including 16 nmoles/kg ([…]), 50 nmoles/kg ([…]) and 158 nmoles/kg (4.0 mg/kg). […] Therapeutic protein treatments were administered twice a day for the duration of the DSS exposure.
At the end of each DSS model study, mice were fasted for 4 hours and then orally gavaged with 600 mg/kg 4KDa dextran labeled with FITC [4KDa-FITC]. One hour after the 4KDa-FITC gavage, mice were euthanized, blood was collected, and FITC signal was measured in serum. […] Data in both graphs are plotted as mean±SEM and each figure represent data from an individual experiment (n=10 per group).
Upon completion of the OSS models above. […]

[1] = Example 4, 50 nmoles/kg i.p. b.i.d.
[2] = Example 4, 50 nmoles/kg i.p. b.i.d., vs DSS + vehicle

| Molecule | 4KDa-FITC signal in serum | gross pathology (clinical score 0-5) (Example 13, 160 nmoles/kg dose, p<0.002) | colon length (Example 13A (FIG. 22A)) | body weight (Example 13A, 158 nmoles/kg, day 6) | serum LBP (Example 13A, 158 nmoles/kg, p=0.003) | colon length [1] | colon weight to length ratio [1] | histopathology: edema score of colon [1] | 4KDa-FITC dextran translocation across the epithelial barrier (serum) (Example 4, 50 nmoles/kg i.p. b.i.d., 2.5% DSS 6 days, vs DSS + vehicle) | body weight [2] | gross pathology (clinical score 0-5) [2] | serum LPS binding protein (LBP) concentration [2] |
| --- | --- | --- | --- | --- | --- | --- | --- | --- | --- | --- | --- | --- |
| SG-11V5: variant of SEQ ID NO:7 with N53S, N83S, C147V, C151S (protein, Artificial variant of SG-11 (N53S, N83S, C147V, C151S)) MLEGEESVVYVGKKGVIASLDVETLDQSYYDETELKSYVDAEVEDYTAEHGKSAVKVESLKVEDGVAKLKMKYKTPEDYTAFSGIELYQGKVVASLAAGYVYDGEFARVEEGKVVGAATKQDIYSEDDLKVAIIRANTDVKVDGEIVYVSSQNVKLTGKDSVSIRDGYYLETGSVTASVDVTGQESVGTEQLSGTEQMEMTGEPVNADDTEQTEAAAGDGSFETDVYTFIVYK | reduced the 4KDa-FITC signal, although the difference did not reach statistical significance | significant improvement | significant increase in the colon length | significant improvement in body weight | significant reduction in LBP production |  |  |  |  |  |  |  |
| SG-11: Roseburia hominis protein comprising SEQ ID NO:3; tested as SEQ ID NO:5, SEQ ID NO:7 or FLAG-tagged SEQ ID NO:9 (protein, listed as Rosburia hominis) LEGEESVVYVGKKGVIASLDVETLDQSYYDETELKSYVDAEVEDYTAEHGKNAVKVESLKVEDGVAKLKMKYKTPEDYTAFNGIELYQGKVVASLAAGYVYDGEFARVEEGKVVGAATKQDIYSEDDLKVAIIRANTDVKVDGEICYVSCQNVKLTGKDSVSIRDGYYLETGSVTASVDVTGQESVGTEQLSGTEQMEMTGEPVNADDTEQTEAAAGDGSFETDVYTFIVYK | significantly reduced the 4KDa-FITC signal |  | significant increase in the colon length |  |  | prevented colon shortening elicited by DSS | significant improvement in colon weight to length ratios | reduced edema to a similar level as Gly2-GLPs, though the difference did not reach statistical significance | significant reduction in 4KDa-FITC dextran | significantly improved body weight | significantly improved gross pathology | significant reduction in LBP |
